Molecular target: recombinant SSA (streptococcal superantigen SSA of S. pyogenes HKU16, without the predicted signal peptide) (S. pyogenes HKU16)

With “recombinant SSA (streptococcal superantigen SSA of S. pyogenes HKU16, without the predicted signal peptide) (natural protein)” the stoichiometry N was 2.
